Test results: patent publication US20220306764A1 (NATIONAL INSTITUTE OF BIOTECHNOLOGY IN THE NEGEV, published 2022)

These binders were tested against T1, purified extracellular domain of PSMA (prostate-specific membrane antigen), residues 44-750 (UniProt Q04609 44-750) (assay: SPR (ProteOn XPR36), NB immobilised, soluble PSMA as analyte, 1:1 Langmuir, 25 C).
T1 construct: range 44-750; The limits 44-750 are stated for the immunogen; Docking used PDB 1Z8L; also called soluble PSMA; monomeric PSMA
Procedure: The bottom curve in each sensogram represents the lowest concentration, while the top curve represents the highest concentration. A FACS analysis (n=3) was used to determine the binding of these NBs (0.1-1,000 nM) to PC3-PIP (PSMA⁺) cells (1E) and to PC3-flu (PSMA⁻) cells (1F). For convenience, each fluorescence value was normalized to the fluorescence values at the highest and lowest concentrations of PC3-PIP cells.
The affinity of each NB to PSMA was determined by using surface plasmon resonance (SPR) spectroscopy on a ProteOn XPR36 chip (Bio-Rad, CA). The chip was activated by using sulfo-NHS (0.1 M N-hydroxysuccinimide) and EDC [0.4 M 1-ethyl-3-(3-dimethylaminopropyl)-carbodiimide]. Each NB (0.2 μg) was immobilized in a 10 mM sodium acetate buffer, pH 5.0, at a flow rate of 30 μl/min. Bovine serum albumin (BSA) (3 μg) was immobilized on the chip as a negative control. Unbound esters were deactivated with 1 M ethanolamine HCl at pH 8.5. […] During this time, the association between the NBs and PSMA was measured. The dissociation was measured while flowing 50 μ1/min PBST (namely, a phosphate-buffered saline with 0.005% Tween). For each protein complex, a binding sensogram was generated by subtracting the values of the PSMA response to BSA from those of the PSMA response to the NBs. The dissociation constant (KD) was determined from the Langmuir 1:1 kinetic model. The temperature throughout the binding measurements was set at 25° C.

T1 sequence (Q04609 44-750 limits assumed): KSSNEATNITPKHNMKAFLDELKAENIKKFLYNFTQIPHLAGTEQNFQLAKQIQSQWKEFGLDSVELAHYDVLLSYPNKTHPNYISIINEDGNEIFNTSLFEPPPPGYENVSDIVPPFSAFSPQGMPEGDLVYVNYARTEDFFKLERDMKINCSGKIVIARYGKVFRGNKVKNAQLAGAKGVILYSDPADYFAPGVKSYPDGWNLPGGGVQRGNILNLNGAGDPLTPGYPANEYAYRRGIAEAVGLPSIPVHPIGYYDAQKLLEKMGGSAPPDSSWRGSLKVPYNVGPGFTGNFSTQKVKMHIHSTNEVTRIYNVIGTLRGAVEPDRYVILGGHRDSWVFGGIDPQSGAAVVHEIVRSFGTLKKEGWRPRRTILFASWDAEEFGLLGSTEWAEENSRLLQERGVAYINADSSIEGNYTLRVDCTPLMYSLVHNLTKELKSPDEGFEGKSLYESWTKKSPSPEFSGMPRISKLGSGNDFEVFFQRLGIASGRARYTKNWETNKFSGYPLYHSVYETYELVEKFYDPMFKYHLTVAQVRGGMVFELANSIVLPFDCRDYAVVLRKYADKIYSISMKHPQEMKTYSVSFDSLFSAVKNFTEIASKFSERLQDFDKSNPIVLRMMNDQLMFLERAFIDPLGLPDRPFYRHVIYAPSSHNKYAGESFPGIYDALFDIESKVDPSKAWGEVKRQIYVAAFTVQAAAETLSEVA

Binder	Kd [nM]	koff [s⁻¹]	kon [M⁻¹ s⁻¹]
NB8 (VHH, also called nanobody 8; PDB 6XXO; not shown: His tag (NBs purified on Ni-NTA and detected with anti-His)) VHH: QVQLQESGGGSVQAGGSLRLSCARSGWPYSTYSMNWFRQAPGKEREAVAGISSTMSGIIFAESKAGQFTISQDNAKNTVYLQMNNLKPEDTAIYYCAARRDYSLSSSSDDFDYWGQGTQVTVSS	6	0.00012	20000
NB37 (VHH, also called nanobody 37; PDB 6XXP; not shown: His tag (NBs purified on Ni-NTA and detected with anti-His)) VHH: QVQLQESGGGSVEAGGSLRLSCARSGWPYSTYSMNWFRQAPGKEREAVAGISSTMSGIIFAESKAGQFTISQDNAKNTVYLQMNNLKPEDTAIYYCAARRDYSLSSSSDDFDYWGQGTQVTVSS	3.4	7.5e-05	22000
NB13 (VHH, also called nanobody 13; not shown: His tag (NBs purified on Ni-NTA and detected with anti-His)) VHH: QVQLQESGGGSVQTGGSLRLSCAASGYTASFSWIGYFRQAPGKEREGVAVINVGVGSTYYADSVKGRFTISRDNTENTISLEMNSLKPEDTGLYYCAGSLRWSRPPNPISEDAYNYWGQGTQVTVSS	0.6	2.2e-05	36000
NB7 (VHH, also called nanobody 7; anti-PSMA NB7; not shown: His tag (NBs purified on Ni-NTA and detected with anti-His)) VHH: QVQLQESGGGSVQAGGSLRLSCTAPGYTDSNYYMSWFRQAPGKEREWVAGVNTGRGSTSYADSVKGRFTISQDNAKNTMFLQMNSLKPEDTAIYYCAVAACHFCDSLPKTQDEYILWGQGTQVTVSS	0.055	3.9e-05	710000
